Laboratory results: patent US20240043530A1 (JIANGSU HENGRUI PHARMACEUTICALS, published 2024)
Where two headings read alike, the source gives them in different places.

Key:
[1] = target: human PVRIG expressed on the cell surface (human) (UniProt Q6DKI7); experiment: cell-based or functional assay
[2] = target: T1, human PVRIG expressed on the cell surface (human, UniProt Q6DKI7 41-326); experiment: cell-based or functional assay
T1 sequence (looked up): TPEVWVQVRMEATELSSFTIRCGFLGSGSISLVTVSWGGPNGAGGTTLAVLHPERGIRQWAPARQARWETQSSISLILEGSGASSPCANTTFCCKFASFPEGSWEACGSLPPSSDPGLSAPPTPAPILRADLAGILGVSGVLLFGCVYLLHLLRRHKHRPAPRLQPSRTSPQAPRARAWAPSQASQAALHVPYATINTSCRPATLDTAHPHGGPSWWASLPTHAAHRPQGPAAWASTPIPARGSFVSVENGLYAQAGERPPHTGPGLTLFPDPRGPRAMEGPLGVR

[3] = target: T1, human PVRIG expressed on the cell …; experiment: cell-based or functional assay; remark: listed apart in the source
[4] = target: T1, human PVRIG expressed on the cell …; experiment: cell-based or functional assay; remark: listed apart in the source
[5] = target: T1, human PVRIG expressed on the cell …; experiment: cell-based or functional assay; remark: listed apart in the source
[6] = target: T1, human PVRIG expressed on the cell …; experiment: cell-based or functional assay; remark: listed apart in the source
[7] = target: T2, cynomolgus monkey PVRIG expressed on the cell surface (cynomolgus monkey, UniProt A0A2K5WVV8 1-322); experiment: flow cytometry on cells overexpressing cynomolgus monkey PVRIG, labelled anti-human IgG (method of Example 5)
T2 construct: whole, on cells; also called cells overexpressing cynomolgus monkey PVRIG; Monkey PVRIG FACS
T2 sequence: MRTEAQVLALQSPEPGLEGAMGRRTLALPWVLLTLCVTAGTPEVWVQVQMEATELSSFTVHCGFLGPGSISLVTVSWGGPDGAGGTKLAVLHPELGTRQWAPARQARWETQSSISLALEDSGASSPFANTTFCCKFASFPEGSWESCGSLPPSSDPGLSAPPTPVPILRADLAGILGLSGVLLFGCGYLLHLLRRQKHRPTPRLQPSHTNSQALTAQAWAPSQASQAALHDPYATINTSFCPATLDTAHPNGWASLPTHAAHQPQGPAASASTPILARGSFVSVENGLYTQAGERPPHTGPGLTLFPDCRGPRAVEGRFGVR
Protocol: The expression plasmid carries human or cynomolgus monkey PVRIG gene sequence was transfected into HEK293 cells, and the over-expressing stable transfection monoclonal cell strain was obtained by antibiotic screening and infinite dilution. Overexpressing cells were seeded into a 96-well plate at 2×10⁵ cells/per well. The cells were centrifuged at 300 g for 5 min, the supernatant was then removed, 100 μL of the test antibody was added, and the mixture was incubated at 4° C. for 1 h. The mixture was centrifuged, the supernatant was removed, the plate was washed 3 times with 200 μL of a washing solution (PBS+2% FBS), and then 100 μL of an anti-human IgG secondary antibody (Invitrogen, A-11013) labeled with Alexa Fluor 488 diluted at 1:500 was added. The mixture was incubated at 4° C. for 1 h. The mixture was centrifuged, the supernatant was removed, and the plate was washed 3 times with 200 μL of a washing solution (PBS+2% FBS). Cells were resuspended in 100 μL of PBS and detected by a flow cytometer (BD FACS Calibur or BD FACS Canto_II).
(§1) Binding of the humanized anti-PVRIG/TIGIT bispecific antibodies to human and cynomolgus monkey PVRIG and their blocking of the ligand of human PVRIG were detected according to the methods of Examples 4, 5 and 6.

[8] = target: T3, his-tagged cynomolgus monkey PVRIG recombinant protein (cynomolgus monkey); experiment: ELISA, plate coated with cynomolgus monkey PVRIG recombinant protein, HRP anti-human IgG, OD450 (method of Example 4)
T3 construct: expressed in HEK293, purified by Ni-NTA; also called cyno-PVRIG-his; Cynomolgus monkey PVRIG-his
T3 chain: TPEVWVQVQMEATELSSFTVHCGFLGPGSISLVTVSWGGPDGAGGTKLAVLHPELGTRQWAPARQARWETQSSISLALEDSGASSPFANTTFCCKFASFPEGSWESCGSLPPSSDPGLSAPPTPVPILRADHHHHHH
Protocol: Human, cynomolgus monkey or mouse PVRIG protein (at a concentration of 1 μg/mL) was coated on a 96-well microplate at 100 μL per well, and incubated overnight at 4° C. The plate was washed three times with a washing solution at 250 μL per well. For each wash, the plate was shaken for 10 s to ensure adequate cleaning. A blocking solution (PBS+0.05% Tween20+1% BSA) was added at 300 μL per well and the plate was incubated at room temperature for 1 h. The plate was washed three times with a washing solution at 250 μL per well. For each wash, the plate was shaken for 10 s to ensure adequate cleaning. The test anti-PVRIG antibody diluted in diluent was added at 100 μL per well. The mixture was incubated at 37° C. for 1 h. The plate was washed three times with a washing solution at 250 μL per well. HRP-labeled anti-human IgG secondary antibody (Sigma, A8667) was added at 100 μL per well. The mixture was incubated at 37° C. for 1 h. The plate was washed three times with a washing solution at 250 μL per well. […] The OD values at 450 nm were read by using a Thermo MultiSkanFc microplate reader, and the EC₅₀ values of the binding of the anti-PVRIG antibodies to PVRIG were calculated.
as §1

IgG4 control antibody
IFNγ (pg/mL) in mixed lymphocyte reaction, 20 nM antibody (control) [1]: 74 pg/mL
IFNγ (pg/mL) in mixed lymphocyte reaction, 100 nM antibody (control) [1]: 89 pg/mL
Killing activity (%) of NK92 on K562, 4 nM antibody (control) [1]: 11.2%
Killing activity (%) of NK92 on K562, 20 nM antibody (control) [1]: 11.7%
Killing activity (%) of NK92 on K562, 100 nM antibody (control) [1]: 9.2%

B1: positive antibody Tab5 (antibody, human IgG4 S228P, kappa, F234A L235A, V domains shown)
VH: EVQLVESGGGVVKPGGSLRLSCAASGFTFGTSSMNWVRQAPGKGLEWVAVISFDGTEIHYADSVKGRFTISRDNSKSTVFLQMNSLRPDDTALYYCAKGSGNIYFYSGMDVWGQGTTVTVSS
VL: DIQMTQSPSTLSASVGDRVTITCRAGQSISGWLAWFQQKPGKAPNLLIYETSTLESGVPSRFSGSGSGTEYTLTISSLQPDDFATYYCQQYYSYPLTFGQGTKVEIKR
Experiment on activity in PVRIG reporter cells EC50 [2]: 0.74 nM
Killing activity (%) of NK92 on K562, 20 nM antibody [3]: 32%
Killing activity (%) of NK92 on K562, 100 nM antibody [3]: 32%
IFNγ (pg/mL) in mixed lymphocyte reaction, 4 nM antibody [4]: 912 pg/mL
IFNγ (pg/mL) in mixed lymphocyte reaction, 20 nM antibody [4]: 1420 pg/mL
IFNγ (pg/mL) in mixed lymphocyte reaction, 100 nM antibody [4]: 2350 pg/mL
Experiment on activity in PVRIG reporter cells EC50 [5]: 1.38 nM
Killing activity (%) of NK92 on K562, 4 nM antibody [6]: 5.9%
Killing activity (%) of NK92 on K562, 20 nM antibody [6]: 7.9%
Killing activity (%) of NK92 on K562, 100 nM antibody [6]: 10%

B2: anti-TIGIT antibody 1708 (antibody, human IgG4 S228P, kappa, V domains shown)
VH: EVQLVQSGAEVKKPGASVKVSCKASGYTFTNYWMHWVRQAPGQGLEWMGRIDPDSTGSKYNEKFKTRVTMTRDTSTSTVYMELSSLRSEDTAVYYCAREGAYGYYFDYWGQGTLVTVSS
VL: DIQMTQSPSSLSASVGDRVTITCRASENIYSYLAWYQQKPGKSPKLLIYNARTLAEGVPSRFSGSGSGTDFTLTISSLQPEDFATYYCQYHSGSPLPFGGGTKVEIKR
notes: human IgG4 subtype with S228P; kappa light chain
binding result [7]: no binding (tested: about 200 nM)
binding result [8]: no binding (tested: about 20 nM)
